{
  "source": "patent US10010560",
  "about": "(dated 2018)",
  "key": {"HSP70 (ATP-bound)": {"target": "HSP70 (ATP-bound) (human)", "sequence (chain, as listed by the source)": "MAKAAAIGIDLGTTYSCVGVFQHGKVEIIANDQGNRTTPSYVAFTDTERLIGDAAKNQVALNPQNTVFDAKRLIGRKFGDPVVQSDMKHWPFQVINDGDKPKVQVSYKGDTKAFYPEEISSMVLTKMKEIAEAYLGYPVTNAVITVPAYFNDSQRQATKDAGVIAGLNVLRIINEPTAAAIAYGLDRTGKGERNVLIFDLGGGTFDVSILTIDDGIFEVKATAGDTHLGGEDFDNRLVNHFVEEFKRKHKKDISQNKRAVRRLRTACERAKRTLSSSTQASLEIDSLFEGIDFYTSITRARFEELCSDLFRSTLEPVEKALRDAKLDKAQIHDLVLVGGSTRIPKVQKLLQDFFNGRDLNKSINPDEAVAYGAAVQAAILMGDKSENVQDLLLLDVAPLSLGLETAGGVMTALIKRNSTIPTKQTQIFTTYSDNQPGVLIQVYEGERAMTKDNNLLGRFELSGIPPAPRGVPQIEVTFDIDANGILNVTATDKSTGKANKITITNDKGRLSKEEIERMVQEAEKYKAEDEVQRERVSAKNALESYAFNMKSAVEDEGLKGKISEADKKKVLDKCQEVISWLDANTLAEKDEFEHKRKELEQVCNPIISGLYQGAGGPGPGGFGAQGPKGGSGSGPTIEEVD", "experiment": "ITC, ATP"}, "HSP70 (ADP-bound)": {"target": "HSP70 (ADP-bound) (human)", "sequence (chain, as listed by the source)": "as above", "experiment": "ITC, ADP"}},
  "data": [
    {"binder": "NRLLLTG", "note": "[NRLLLTG peptide]", "values": [
      {"measurement": "Kd", "setting": "HSP70 (ATP-bound)", "value": 1.25, "unit": "mM"},
      {"measurement": "Kd", "setting": "HSP70 (ADP-bound)", "value": 10, "unit": "µM"}
    ]}
  ]
}
